Reference: IntAct's records for PubMed 19415803

B1: DNA polymerase III subunit tau (Bacillus subtilis), P09122 (parent)
chain: MSYQALYRVFRPQRFEDVVGQEHITKTLQNALLQKKFSHAYLFSGPRGTGKTSAAKIFAKAVNCEHAPVDEPCNECAACKGITNGSISDVIEIDAASNNGVDEIRDIRDKVKFAPSAVTYKVYIIDEVHMLSIGAFNALLKTLEEPPEHCIFILATTEPHKIPLTIISRCQRFDFKRITSQAIVGRMNKIVDAEQLQVEEGSLEIIASAADGGMRDALSLLDQAISFSGDILKVEDALLITGAVSQLYIGKLAKSLHDKNVSDALETLNELLQQGKDPAKLIEDMIFYFRDMLLYKTAPGLEGVLEKVKVDETFRELSEQIPAQALYEMIDILNKSHQEMKWTNHPRIFFEVAVVKICQTSHQSAADLPEVDMLMKKIQQLEQEVERLKTTGIKAAAESPKKEAPRVPKGGKSNYKAPVGRIHEILKEATRPDLDLLRNSWGKLLAHLKQQNKVSHAALLNDSEPVAAGSAAFVLKFKYEIHCKMVAEDNNGVRTNLEQILESMLGKRMDLIGVPEAQWGKIREEFLEDHQQENEGSNEPAEEDPLIAEAKKLVGADLIEIKD
partner: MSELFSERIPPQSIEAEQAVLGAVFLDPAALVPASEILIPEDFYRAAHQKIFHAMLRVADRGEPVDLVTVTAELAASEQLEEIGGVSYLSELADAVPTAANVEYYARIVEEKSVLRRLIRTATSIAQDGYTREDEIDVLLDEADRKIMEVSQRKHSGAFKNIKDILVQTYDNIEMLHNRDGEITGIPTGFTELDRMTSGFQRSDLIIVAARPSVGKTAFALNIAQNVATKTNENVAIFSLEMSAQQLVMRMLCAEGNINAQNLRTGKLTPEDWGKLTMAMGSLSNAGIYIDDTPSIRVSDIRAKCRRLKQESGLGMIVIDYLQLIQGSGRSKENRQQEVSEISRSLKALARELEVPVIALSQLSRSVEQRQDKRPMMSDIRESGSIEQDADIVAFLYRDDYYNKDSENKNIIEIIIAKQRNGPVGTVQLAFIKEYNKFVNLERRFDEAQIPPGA

Variants of: B1
Details: with dnab_geose dnaB

Effect of a mutation on the interaction, decreasing interaction strength:
MSYQALYRVFRPQRFEDVVGQEHITKTLQNALLQKKFSHAYLFSGPRGTGKTSAAKIFAKAVNCEHAPVDEPCNECAACKGITNGSISDVIEIDAASNNGVDEIRDIRDKVKFAPSAVTYKVYIIDEVHMLSIGAFNALLKTLEEPPEHCIFILATTEPHKIPLTIISRCQRFDFKRITSQAIVGRMNKIVDAEQLQVEEGSLEIIASAADGGMRDALSLLDQAISFSGDILKVEDALLITGAVSQLYIGKLAKSLHDKNVSDALETLNELLQQGKDPAKLIEDMIFYFRDMLLYKTAPGLEGVLEKVKVDETFRELSEQIPAQALYEMIDILNKSHQEMKWTNHPRIFFEVAVVKICQTSHQSAADLPEVDMLMKKIQQLEQEVERLKTTGIKAAAESPKKEAPRVPKGGKSNYKAPVGRIHEILKEATRPDLDLLRNSWGKLLAHLKQQNKVSHAALLNDSEPVAAGSAAFVLKFKYEIHCKMVAEDNNRVRTNLEQILESMLGKRMDLIGVPEAQWGKIREEFLEDHQQENEGSNEPAEEDPLIAEAKKLVGADLIEIKD [G492R]
MSYQALYRVFRPQRFEDVVGQEHITKTLQNALLQKKFSHAYLFSGPRGTGKTSAAKIFAKAVNCEHAPVDEPCNECAACKGITNGSISDVIEIDAASNNGVDEIRDIRDKVKFAPSAVTYKVYIIDEVHMLSIGAFNALLKTLEEPPEHCIFILATTEPHKIPLTIISRCQRFDFKRITSQAIVGRMNKIVDAEQLQVEEGSLEIIASAADGGMRDALSLLDQAISFSGDILKVEDALLITGAVSQLYIGKLAKSLHDKNVSDALETLNELLQQGKDPAKLIEDMIFYFRDMLLYKTAPGLEGVLEKVKVDETFRELSEQIPAQALYEMIDILNKSHQEMKWTNHPRIFFEVAVVKICQTSHQSAADLPEVDMLMKKIQQLEQEVERLKTTGIKAAAESPKKEAPRVPKGGKSNYKAPVGRIHEILKEATRPDLDLLRNSWGKLLAHLKQQNKVSHAALLNDSEPVAAGSAAFVLKFKYEIHCKMVAEDNNGVRTNLEQILESMLGKRMDLIGVPEAQWGKIREEFLEDHQQENEGSNEPAEEDPLIAEVKKLVGADLIEIKD [A550V]
MSYQALYRVFRPQRFEDVVGQEHITKTLQNALLQKKFSHAYLFSGPRGTGKTSAAKIFAKAVNCEHAPVDEPCNECAACKGITNGSISDVIEIDAASNNGVDEIRDIRDKVKFAPSAVTYKVYIIDEVHMLSIGAFNALLKTLEEPPEHCIFILATTEPHKIPLTIISRCQRFDFKRITSQAIVGRMNKIVDAEQLQVEEGSLEIIASAADGGMRDALSLLDQAISFSGDILKVEDALLITGAVSQLYIGKLAKSLHDKNVSDALETLNELLQQGKDPAKLIEDMIFYFRDMLLYKTAPGLEGVLEKVKVDETFRELSEQIPAQALYEMIDILNKSHQEMKWTNHPRIFFEVAVVKICQTSHQSAADLPEVDMLMKKIQQLEQEVERLKTTGIKAAAESPKKEAPRVPKGGKSNYKAPVGRIHEILKEATRPDLDLLRNSWGKLLAHLKQQNKVSHAALLNDSEPVAAGSAAFVLKFKYEIHCKMVAEDNNGVRTNLEQILESMLGKRMDLIGVPEAQRGKIREEFLEDHQQENEGSNEPAEEDPLIAEAKKLVGADLIEIKD [W519R]
MSYQALYRVFRPQRFEDVVGQEHITKTLQNALLQKKFSHAYLFSGPRGTGKTSAAKIFAKAVNCEHAPVDEPCNECAACKGITNGSISDVIEIDAASNNGVDEIRDIRDKVKFAPSAVTYKVYIIDEVHMLSIGAFNALLKTLEEPPEHCIFILATTEPHKIPLTIISRCQRFDFKRITSQAIVGRMNKIVDAEQLQVEEGSLEIIASAADGGMRDALSLLDQAISFSGDILKVEDALLITGAVSQLYIGKLAKSLHDKNVSDALETLNELLQQGKDPAKLIEDMIFYFRDMLLYKTAPGLEGVLEKVKVDETFRELSEQIPAQALYEMIDILNKSHQEMKWTNHPRIFFEVAVVKICQTSHQSAADLPEVDMLMKKIQQLEQEVERLKTTGIKAAAESPKKEAPRVPKGGKSNYKAPVGRIHEILKEATRPDLDLLRNSWGKLLAHLKQQNKVSHAALLNDSEPVAAGSAALVLKFKYEIHCKMVAEDNNGVRTNLEQILESMLGKRMDLIGVPEAQWGKIREEFLEDHQQENEGSNEPAEEDPLIAEAKKLVGADLIEIKD [F473L]
MSYQALYRVFRPQRFEDVVGQEHITKTLQNALLQKKFSHAYLFSGPRGTGKTSAAKIFAKAVNCEHAPVDEPCNECAACKGITNGSISDVIEIDAASNNGVDEIRDIRDKVKFAPSAVTYKVYIIDEVHMLSIGAFNALLKTLEEPPEHCIFILATTEPHKIPLTIISRCQRFDFKRITSQAIVGRMNKIVDAEQLQVEEGSLEIIASAADGGMRDALSLLDQAISFSGDILKVEDALLITGAVSQLYIGKLAKSLHDKNVSDALETLNELLQQGKDPAKLIEDMIFYFRDMLLYKTAPGLEGVLEKVKVDETFRELSEQIPAQALYEMIDILNKSHQEMKWTNHPRIFFEVAVVKICQTSHQSAADLPEVDMLMKKIQQLEQEVERLKTTGIKAAAESPKKEAPRVPKGGKSNYKAPVGRIHEILKEATRPDLDLLRNSWGKLLAHLKQQNKVSHAALLNDSEPVAAGSAAFVLKFKYEIHCKMVAEDNNGVRTNLEQILESMLGKRMSLIGVPEAQWGKIREEFLEDHQQENEGSNEPAEEDPLIAEAKKLVGADLIEIKD [D510S]
MSYQALYRVFRPQRFEDVVGQEHITKTLQNALLQKKFSHAYLFSGPRGTGKTSAAKIFAKAVNCEHAPVDEPCNECAACKGITNGSISDVIEIDAASNNGVDEIRDIRDKVKFAPSAVTYKVYIIDEVHMLSIGAFNALLKTLEEPPEHCIFILATTEPHKIPLTIISRCQRFDFKRITSQAIVGRMNKIVDAEQLQVEEGSLEIIASAADGGMRDALSLLDQAISFSGDILKVEDALLITGAVSQLYIGKLAKSLHDKNVSDALETLNELLQQGKDPAKLIEDMIFYFRDMLLYKTAPGLEGVLEKVKVDETFRELSEQIPAQALYEMIDILNKSHQEMKWTNHPRIFFEVAVVKICQTSHQSAADLPEVDMLMKKIQQLEQEVERLKTTGIKAAAESPKKEAPRVPKGGKSNYKAPVGRIHEILKEATRPDLDLLRNSWGKLLAHLKQQNKVSHAALLNDSEPVAAGSAAFVLKFKYEIHSKMVAEDNNGVRTNLEQILESMLGKRMDLIGVPEAQWGKIREEFLEDHQQENEGSNEPAEEDPLIAEAKKLVGADLIEIKD [C483S]
